Data on one variant can be found in IntAct's records for PubMed 17292836.

The labels stand for the following.
B1: 26S proteasome non-ATPase regulatory subunit 10 (Mus musculus), Q9Z2X2 (parent)
chain: MEGCVSNIMICNLAYSGKLDELKERILADKSLATRTDQDSRTALHWACSAGHTEIVEFLLQLGVPVNDKDDAGWSPLHIAASAGRDEIVKALLVKGAHVNAVNQNGCTPLHYAASKNRHEIAVMLLEGGANPDAKDHYDATAMHRAAAKGNLKMVHILLFYKASTNIQDTEGNTPLHLACDEERVEEAKFLVTQGASIYIENKEEKTPLQVAKGGLGLILKRLAESEEASM
partner: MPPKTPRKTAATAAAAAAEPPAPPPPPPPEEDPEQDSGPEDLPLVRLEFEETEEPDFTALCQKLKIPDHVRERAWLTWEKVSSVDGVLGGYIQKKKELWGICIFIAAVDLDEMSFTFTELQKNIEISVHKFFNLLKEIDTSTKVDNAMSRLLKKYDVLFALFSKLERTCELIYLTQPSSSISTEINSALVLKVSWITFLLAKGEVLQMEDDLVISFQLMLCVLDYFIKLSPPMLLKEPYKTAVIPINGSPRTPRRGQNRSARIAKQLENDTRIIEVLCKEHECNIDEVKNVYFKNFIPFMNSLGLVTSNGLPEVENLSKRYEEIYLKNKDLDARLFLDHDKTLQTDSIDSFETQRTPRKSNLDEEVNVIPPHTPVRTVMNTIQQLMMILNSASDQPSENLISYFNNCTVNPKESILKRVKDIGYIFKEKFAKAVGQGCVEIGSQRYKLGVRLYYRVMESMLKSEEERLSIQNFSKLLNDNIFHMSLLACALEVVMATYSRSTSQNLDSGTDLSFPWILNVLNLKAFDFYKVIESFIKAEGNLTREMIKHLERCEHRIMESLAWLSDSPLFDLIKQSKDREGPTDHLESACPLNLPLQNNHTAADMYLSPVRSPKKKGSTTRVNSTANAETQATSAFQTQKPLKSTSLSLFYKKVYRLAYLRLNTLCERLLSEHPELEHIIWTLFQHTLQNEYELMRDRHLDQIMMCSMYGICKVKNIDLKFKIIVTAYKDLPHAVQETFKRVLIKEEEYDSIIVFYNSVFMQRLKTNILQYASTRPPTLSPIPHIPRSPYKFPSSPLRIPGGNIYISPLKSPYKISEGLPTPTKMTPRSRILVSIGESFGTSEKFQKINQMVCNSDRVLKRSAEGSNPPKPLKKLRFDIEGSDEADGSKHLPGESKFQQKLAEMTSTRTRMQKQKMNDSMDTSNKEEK

The experiment covers variants of B1. As to conditions: with rb_human RB1, P06400.
Take MEGCVSNIMICNLAYSGKLDELKERILADKSLATRTDQDSRTALHWACSAGHTEIVEFLLQLGVPVNDKDDAGWSPLHIAASAGRDEIVKALLVKGAHVNAVNQNGCTPLHYAASKNRHEIAVMLLEGGANPDAKDHYDATAMHRAAAKGNLKMVHILLFYKASTNIQDTEGNTPLHLACDAERVEEAKFLVTQGASIYIENKEEKTPLQVAKGGLGLILKRLAESEEASM [E182A]: the “effect of a mutation on the interaction” value is “disrupting interaction”.
